Reference: US20110214193A1, “BIOMARKER FOR MICRODOMAIN DISEASE” (SUMITOMO CHEMICAL COMPANY, LIMITED, priority 2008, published 2011)

Assays:
Type in all cases: cell-based
[1] = system: differentiated mouse adipocyte cell line 3T3-L1; assay: Enhancing action by anti-GM2A antibody and ligand on glucose uptake (2-deoxyglucose incorporation)
Experimental: (§1) Mouse adipocyte cell line 3T3-L1 was purchased from Health Science Research Resources Bank. Cells of the purchased mouse adipocyte cell line […] were cultured in a D-MEM containing 10% fetal bovine serum (hereinafter referred to as D-MEM (10)) at 37° C. under an atmosphere of 5% CO2. The cultured cells were plated on a 6-well plate. Two days after becoming confluent, the culture solution was exchanged for a pre-differentiation culture solution (D-MEM (10) containing 1 μg/ml insulin, 0.5 mM 3-isobutyl-1-methylxanthine, and 1 μM dexamethasone), and the culture was further cultured for another 4 days. […] Here, the protein concentration of the specimen was measured using BCA Protein Assay Reagent (catalogue No. 23228, Pierce) using bovine serum albumin as a standard protein.
The amount of 2-deoxyglucose in the specimen was quantitatively determined according to the following method. To a plate for fluorescence measurement, were added 100 μl of an assay buffer (50 mM triethanolamine (pH 8.1), 50 mM KCl, 0.5 mM MgCl2, 0.02% bovine serum albumin, 670 μM ATP, 0.12 μM NADP^+, 25 μM resazurin, 5.5 units/ml hexokinase, 16 units/ml G6PDH, 1 units/ml diaphorase) and 100 μl of the specimen. After keeping the obtained mixture at 37° C. for 90 minutes, the fluorescence intensity of the obtained mixture was measured (excitation wavelength: 530 nm, detection wavelength: 595 nm). […]

[2] = system: differentiated mouse skeletal muscle cell line C2C12; assay: Inhibition by GM2A protein of insulin intracellular signaling (Akt phosphorylation, Western blot); conditions: for Phosphorylated Akt/Akt: Insulin + (1 μg/ml, 10 minutes), 24 hours, no insulin = 1.0, insulin alone = 2.1
Experimental: (§2) Mouse skeletal muscle cell line C2C12 (CRL-1772) and rat pheochromocytoma cell line PC12 (CRl-1721) were purchased from ATCC. Cells of the both cell lines were cultured in a D-MEM medium containing 10% inactivated fetal bovine serum (catalogue No. 14247-15, NACALAI TESQUE, INC.) at 37° C. under an atmosphere of 5% CO2. Cells of differentiated mouse skeletal muscle cell line C2C12 were prepared by exchanging the medium for a D-MEM containing 2% inactivated equine serum and culturing the mixture for […].
(§3) Human GM2A protein was prepared as follows. First, a cDNA was prepared from human lung cancer cell line HARA-B (catalogue No. JCRB1080.1, Health Science Research Resources Bank), using oligo(dT). Using the prepared cDNA, a PCR fragment containing the full length of human GM2A gene was obtained. The obtained PCR fragment was inserted into pET24a vector (catalogue No. 69749-3, Novagen), whereby human GM2A/pET24a plasmid was prepared. Next, after human GM2A/pET24a was added to Escherichia coli BL21 (DE3) pLysS (catalogue No. 69451-4, Novagen) to transform the Escherichia coli, the obtained Escherichia coli was cultured on shaking in an LB medium containing 50 μg/ml kanamycin at 37° C. until OD600=about 0.5. Then, after Isopropyl-β-thiogalactopyranoside (catalogue No. 9030, Takara Bio Inc.) was added to the obtained culture so that the final concentration could be 0.5 mM, the culture was further cultured on shaking at 18° C. for 3 hours. Bacterial cells were collected by centrifuging the obtained culture, and the collected bacterial cells were sonicated. Then, the obtained homogenate was centrifuged at 11,000 rpm for 30 minutes. After Ni-NTA agarose (catalogue No. 1018244, Qiagen) was added to the obtained supernatant and left at 4° C. for 2 hours, the obtained left object was washed 5 times. From the obtained washed object, an elution fraction of a protein was obtained by elution of a protein with 250 mM imidazole. The obtained elution fraction was purified by anion exchange chromatography HiTrapQ HP, whereby human GM2A protein was prepared. […]

[3] = system: undifferentiated mouse skeletal muscle cell line C2C12; assay: Inhibition by GM2A protein of leptin intracellular signaling (AMPK alpha phosphorylation, Western blot); conditions: for Phosphorylated AMPK alpha/AMPK alpha: Leptin + (0.1 μg/ml, 30 minutes), 24 hours, no leptin = 1.0, leptin alone = 1.9
Experimental: as §2, §3

[4] = system: rat pheochromocytoma cell line PC12; assay: Inhibition by GM2A protein of NGF intracellular signaling (Akt phosphorylation, Western blot); conditions: for Phosphorylated Akt/Akt: NGF + (0.1 μg/ml, 10 minutes), 24 hours, no NGF = 1.0, NGF alone = 1.8
Experimental: as §2, §3

[5] = system: mouse adipocyte cell line 3T3-L1; assay: Inhibitory action by GM2A protein on glucose uptake (2-deoxyglucose incorporation); conditions: for Amount of 2-Deoxyglucose: relative value per amount of protein, Insulin +, no insulin = 100, insulin alone = 215
Experimental: as §1, with “days. Next, after the pre-differentiation culture solution was exchanged for a post-differentiation culture solution (D-MEM (10) containing 1 insulin) and the culture was cultured for 3 days, the culture solution was exchanged for a D-MEM (10) containing mouse GM2A protein, and the culture was further cultured for another day.” for “days.”
The amount of 2-deoxyglucose in the specimen was quantitatively determined according to the following method. To a plate for fluorescence measurement, were added 100 μl of an assay buffer (50 mM triethanolamine (pH 8.1), 50 mM KCl, 0.5 mM MgCl2, 0.02% bovine serum albumin, 670 μM ATP, 0.12 μM NADP^+, 25 μM resazurin, 5.5 units/ml hexokinase, 16 units/ml G6PDH, 1 units/ml diaphorase) and 100 μl of the specimen. After keeping the obtained mixture at 37° C. for 90 minutes, the fluorescence intensity of the obtained mixture was measured (excitation wavelength: 530 nm, detection wavelength: 595 nm). A calibration curve was created using 2-deoxyglucose of 500 μM, 250 μM, 125 μM and 0 μM (purified water) as a standard, and quantitative determination was carried out on the basis of the calibration curve. The amount of 2-deoxyglucose incorporated into a cell per the amount of protein of the specimen was calculated as a relative value.

[6] = concentration-dependent, 2 and 4 μg/ml

ganglioside GM2
intracellular incorporation of 2-deoxyglucose [1]: enhanced | Amount of 2-Deoxyglucose ([1]; relative value, 1 μM, 1 day, DMSO = 100): 120

B1: GM2AP: Human GM2A protein expressed in Escherichia coli from human GM2A/pET24a, purified by Ni-NTA agarose and anion exchange chromatography (protein)
chain: HLKKPSQLSSFSWDNCDEGKDPAVIRSLTLEPDPIIVPGNVTLSVMGSTSVPLSSPLKVDLVLEKEVAGLWIKIPCTDYIGSCTFEHFCDVLDMLIPTGEPCPEPLRTYGLPCHCPFKEGTYSLPKSEFVVPDLELPSWLTTGNYRIESVLSSSGKRLGCIKIAASLKGI
Phosphorylated Akt/Akt ([2]; GM2AP 2 μg/ml): 1.8 | Phosphorylated Akt/Akt ([2]; GM2AP 4 μg/ml): 1.2 | Phosphorylated AMPK alpha/AMPK alpha ([3]; GM2AP 2 μg/ml): 1.0 | Phosphorylated AMPK alpha/AMPK alpha ([3]; GM2AP 4 μg/ml): 0.9 | Phosphorylated Akt/Akt ([4]; GM2AP 2 μg/ml): 1.5 | Phosphorylated Akt/Akt ([4]; GM2AP 4 μg/ml): 1.4

B2: GM2A Protein: mouse GM2A protein added to the culture solution of 3T3-L1 cells in Example 8 (protein)
chain: ARLVPKRLSQLGGFSWDNCDEGKDPAVIKSLTIQPDPIVVPGDVVVSLEGKTSVPLTAPQKVELTVEKEVAGFWVKIPCVEQLGSCSYENICDLIDEYIPPGESCPEPLHTYGLPCHCPFKEGTYSLPTSNFTVPDLELPSWLSTGNYRIQSILSSGGKRLGCIKIAASLKGR
intracellular signaling of insulin [2, 6]: inhibited | intracellular signaling of leptin [3, 6]: inhibited | intracellular signaling of NGF [4, 6]: inhibited | enhancing action by insulin on intracellular incorporation of 2-deoxyglucose ([5]; concentration-dependent, 2 and 10 μg/ml): inhibited | Amount of 2-Deoxyglucose ([5]; GM2A Protein 2 μg/ml): 184 | Amount of 2-Deoxyglucose ([5]; GM2A Protein 10 μg/ml): 156
